Test results reported in the supplement of paper PMC9876800.

Tested on: peptide library, one residue held at a place counted from the S/T acceptor
Assay: relative phosphorylation of the sub-library (ratio to the mean residue at this position); higher = residue favoured
Conditions: human
Procedure, shortened: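 Relative sub-library phosphorylation is the ratio of each sub-library's signal to the mean residue at that position. The signal came from phosphorimaging of spots on streptavidin membranes, quantified by densitometry, after purified recombinant kinases reacted with biotinylated degenerate peptide sub-libraries in 384-well plates. Reactions held 50 μM peptide and 50 μM ATP spiked with γ-32P-ATP for 90 min under kinase-specific conditions.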

Sequence of MYO3B, construct: aa1-326 (Q8WXR4 1-326, looked up): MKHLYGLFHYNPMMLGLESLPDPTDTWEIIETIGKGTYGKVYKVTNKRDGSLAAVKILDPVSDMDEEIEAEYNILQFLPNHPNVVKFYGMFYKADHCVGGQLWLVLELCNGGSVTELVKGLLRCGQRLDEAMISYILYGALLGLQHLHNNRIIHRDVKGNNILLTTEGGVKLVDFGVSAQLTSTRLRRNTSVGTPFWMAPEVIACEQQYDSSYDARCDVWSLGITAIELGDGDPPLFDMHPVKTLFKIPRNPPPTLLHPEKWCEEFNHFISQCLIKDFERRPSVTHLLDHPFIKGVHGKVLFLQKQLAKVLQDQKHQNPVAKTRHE
Sequence of NEK7, construct: Full length (Q8TDX7 whole entry, looked up): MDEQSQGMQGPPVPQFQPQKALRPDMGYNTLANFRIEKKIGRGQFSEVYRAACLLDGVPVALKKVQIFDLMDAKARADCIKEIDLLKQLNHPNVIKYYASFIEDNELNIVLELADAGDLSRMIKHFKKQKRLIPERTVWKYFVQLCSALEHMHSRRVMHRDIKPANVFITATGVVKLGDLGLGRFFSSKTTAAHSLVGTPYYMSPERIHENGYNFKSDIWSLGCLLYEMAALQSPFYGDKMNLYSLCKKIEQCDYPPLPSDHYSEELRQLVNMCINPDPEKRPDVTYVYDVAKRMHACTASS

MTOR, construct: aa1362-end (from UniProt P42345)
relative phosphorylation
Conditions	at +1	at +2	at +3	at +4	at -1	at -2	at -3	at -4	at -5
A fixed	0.644	0.815	1.08	0.948	0.839	1.52	0.751	0.924	0.888
D fixed	0.338	1.2	1.11	0.821	0.489	0.686	0.747	1.1	1.21
E fixed	0.342	0.889	1.07	0.829	0.709	0.643	0.983	1.09	1.04
F fixed	1.72	0.686	0.647	1.01	1.01	1.09	1.09	1.08	1
G fixed	0.613	0.903	1.43	1.21	2.83	1.58	1.01	0.942	1.07
H fixed	0.556	1.24	1.17	1.28	1.18	1.05	1.14	1.21	1.15
I fixed	0.707	0.686	0.601	0.706	0.433	0.88	0.778	0.747	0.593
K fixed	0.487	1.58	1.35	1.36	0.986	0.854	0.924	0.879	1.1
L fixed	1.43	1.16	0.756	0.695	0.698	0.682	0.938	0.956	0.724
M fixed	1.02	0.673	0.694	0.868	1.13	0.705	1.05	1.07	0.807
N fixed	0.452	1.12	1.33	0.968	1.36	0.954	0.986	0.939	0.923
P fixed	2.13	1.31	0.993	0.872	0.786	1.56	1.09	0.955	1.47
Q fixed	0.561	0.83	0.942	0.92	1.15	0.838	0.949	0.953	0.862
R fixed	0.506	1.7	1.2	1.2	1.15	0.973	1.1	1.02	1.04
V fixed	0.816	0.728	0.675	0.7	0.482	0.985	0.795	0.708	0.745
W fixed	1.99	0.643	0.99	1.41	0.721	1.05	1.2	1.3	1.36
Y fixed	2.68	0.836	0.972	1.2	1.05	0.956	1.47	1.13	1.01
pThr fixed	0.637	1.71	1.67	1.27	0.546	1.01	1.15	1.34	1.16
pTyr fixed	1.06	0.721	1	0.941	0.841	1.27	1.66	1.37	1.21

MYO3B, construct: aa1-326 (from UniProt Q8WXR4)
relative phosphorylation
Conditions	at +1	at +2	at +3	at +4	at -1	at -2	at -3	at -4	at -5
A fixed	0.835	0.824	0.907	0.917	1.11	0.997	1.06	0.977	1.15
D fixed	0.195	0.346	0.286	0.408	0.679	0.489	0.538	0.954	0.81
E fixed	0.182	0.272	0.222	0.412	0.633	0.316	0.576	0.933	0.843
F fixed	0.583	0.641	0.831	0.682	0.908	1.44	1.07	1.05	1.01
G fixed	0.936	0.951	1.04	1.24	1.61	1.32	1.8	1.33	1.38
H fixed	0.628	1.1	1.01	1.03	1.18	1.25	1.13	1.14	1.08
I fixed	1.1	0.515	0.595	0.683	0.38	0.578	0.728	0.783	0.787
K fixed	2.3	2.56	2.29	2.28	0.958	0.787	0.946	1.04	1.14
L fixed	1.53	0.724	0.838	0.663	0.945	0.713	0.901	0.82	0.757
M fixed	1.57	0.756	0.71	0.714	1.33	0.857	1.11	0.939	0.947
N fixed	0.754	0.835	0.911	1.03	1.28	0.95	0.939	0.96	0.899
P fixed	0.276	0.96	1.18	1.05	0.601	0.622	0.891	0.953	1.27
Q fixed	1.08	0.752	0.736	0.988	1.04	0.816	0.823	0.946	0.856
R fixed	2.66	3.56	3.06	2.38	1.58	1.72	1.18	1.13	1.15
V fixed	0.809	0.552	0.671	0.702	0.495	0.597	0.582	0.769	0.879
W fixed	0.791	0.737	0.807	1	0.856	1.52	1.28	1.17	0.993
Y fixed	0.781	0.919	0.902	0.826	1.41	2.03	1.44	1.1	1.04
pThr fixed	0.449	0.389	0.599	0.309	0.335	0.494	0.678	0.852	0.895
pTyr fixed	0.308	0.266	0.551	0.392	1.24	0.596	0.873	0.888	1.1

NEK7, construct: Full length (from UniProt Q8TDX7)
relative phosphorylation
Conditions	at +1	at +2	at +3	at +4	at -1	at -2	at -3	at -4	at -5
A fixed	0.653	1.05	0.923	0.86	1.05	1.12	0.975	1.02	1.07
D fixed	0.327	0.61	0.66	0.722	1.29	2.31	0.65	1.91	1.83
E fixed	0.267	0.376	0.597	0.747	1.42	1.8	0.583	1.28	1.43
F fixed	1.54	0.717	1.21	0.846	0.646	0.87	1.94	0.839	0.989
G fixed	0.827	1.12	1.28	1.18	0.713	1.4	0.853	1.05	0.972
H fixed	1.16	1.38	1.21	1.11	1.12	1.3	0.755	1.03	1.06
I fixed	1.28	0.812	0.957	0.919	0.569	0.433	0.494	0.647	0.831
K fixed	0.588	1.47	1.24	1.3	1.34	0.625	0.446	0.82	0.842
L fixed	1.18	0.549	1.1	0.895	1.02	0.718	2.39	0.832	0.771
M fixed	1.78	0.693	0.899	0.948	1.03	0.973	1.46	0.823	0.703
N fixed	1	1.63	0.833	0.907	1.22	1.47	0.705	1.35	1.15
P fixed	0.242	0.691	0.703	1.09	0.234	0.356	1.3	0.918	0.886
Q fixed	1.33	0.933	0.813	0.986	1.52	0.951	0.628	0.889	0.938
R fixed	0.865	2.1	1.08	1.16	1.21	0.626	0.652	0.959	0.878
V fixed	1.05	0.905	0.889	0.846	0.901	0.372	0.538	0.613	0.8
W fixed	1.47	0.94	1.58	1.46	0.908	0.859	1.4	1.23	1.1
Y fixed	1.44	1.02	1.02	1.02	0.796	0.822	1.23	0.78	0.754
pThr fixed	0.701	0.607	0.62	0.842	0.624	1	0.973	1.15	0.979
pTyr fixed	0.816	0.62	0.836	0.681	1.68	1.6	1.12	0.861	1.12
